Laboratory results: paper PMC7212365

Tests used:
[1] = molecular target: Monomeric HER2 binding IgA2m(2) produced in HEK293F cells (human); assay: SPR; Biacore T200; IgA variants immobilized on a Protein L sensor chip; five increasing concentrations of FcαRI injected in single-cycle kinetic experiments; 1:1 binding model; three independent kinetic runs
[2] = molecular target: Monomeric HER2 binding IgA1 produced in N. benthamiana ΔXT/FT (human); assay: as above
[3] = molecular target: Monomeric HER2 binding IgA2m(2) produced in N. benthamiana ΔXT/FT (human); assay: as above
[4] = molecular target: Dimeric HER2 binding IgA2m(2) produced in N. benthamiana ΔXT/FT (human) (UniProt P01591); assay: as above
[5] = molecular target: Monomeric HER2 binding IgA1 produced in HEK293F cells (human); assay: as above
[6] = molecular target: Dimeric HER2 binding IgA1 produced in N. benthamiana ΔXT/FT (human) (UniProt P01591); assay: as above
[7] = molecular target: Dimeric HER2 binding IgA2m(2) produced in HEK293F cells (human) (UniProt P01591); assay: as above
[8] = molecular target: Dimeric HER2 binding IgA1 produced in HEK293F cells (human) (UniProt P01591); assay: as above
[9] = molecular target: HER2 binding monomeric IgA1 produced in HEK293F cells (human); assay: SPR; Biacore T200; IgA variants immobilised on a Protein L sensor chip with the Fc-domain pointing toward the solution; five increasing concentrations of FcαRI injected in single-cycle kinetic experiments; 1:1 binding model; three independent kinetic runs
[10] = molecular target: HER2 binding monomeric IgA2m(2) produced in HEK293F cells (human); assay: as above
[11] = molecular target: HER2 binding monomeric IgA1 produced in N. benthamiana ΔXT/FT plants (human); assay: as above
[12] = molecular target: HER2 binding dimeric IgA2m(2) produced in N. benthamiana ΔXT/FT plants (human) (UniProt P01591); assay: as above
[13] = molecular target: HER2 binding monomeric IgA2m(2) produced in N. benthamiana ΔXT/FT plants (human); assay: as above
[14] = molecular target: HER2 binding dimeric IgA1 produced in HEK293F cells (human) (UniProt P01591); assay: as above
[15] = molecular target: HER2 binding dimeric IgA1 produced in N. benthamiana ΔXT/FT plants (human) (UniProt P01591); assay: as above
[16] = molecular target: HER2 binding dimeric IgA2m(2) produced in HEK293F cells (human) (UniProt P01591); assay: as above

## Recombinant soluble FcαRI (from UniProt P24071 22-227) (receptor)
[1]
  Kd: 0.157 µM
  koff: 0.05 s⁻¹
  kon: 310000 M⁻¹ s⁻¹
[2]
  Kd: 0.103 µM
  koff: 0.061 s⁻¹
  kon: 580000 M⁻¹ s⁻¹
[3]
  Kd: 0.16 µM
  koff: 0.055 s⁻¹
  kon: 340000 M⁻¹ s⁻¹
[4]
  Kd: 0.226 µM
  koff: 0.049 s⁻¹
  kon: 270000 M⁻¹ s⁻¹
[5]
  Kd: 0.109 µM
  koff: 0.05 s⁻¹
  kon: 440000 M⁻¹ s⁻¹
[6]
  Kd: 0.151 µM
  koff: 0.057 s⁻¹
  kon: 370000 M⁻¹ s⁻¹
[7]
  Kd: 0.182 µM
  koff: 0.049 s⁻¹
  kon: 260000 M⁻¹ s⁻¹
[8]
  Kd: 0.144 µM
  koff: 0.055 s⁻¹
  kon: 360000 M⁻¹ s⁻¹
[9]
  Kd: 0.11 µM
  stoichiometry N: 1
[10]
  Kd: 0.17 µM
  stoichiometry N: 1
[11]
  Kd: 0.11 µM
  stoichiometry N: 1
[12]
  stoichiometry N: 1
[13]
  Kd: 0.17 µM
  stoichiometry N: 1
[14]
  stoichiometry N: 1
[15]
  stoichiometry N: 1
[16]
  stoichiometry N: 1
